{
  "source": "paper PMC6891901",
  "tested_on": "T1, KH9-OEP34 (CTP) (synthetic)",
  "T1 sequence": "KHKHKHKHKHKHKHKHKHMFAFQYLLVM",
  "assay": "free peptide quantification",
  "details": "in water; N/P 0.5-5.0; value stated as up to 64%; pDNA/CTP complexes formed in water, N/P 0.1-25, agarose gel EMSA; pH, salt and temperature not given in the material",
  "data": [
    {"substance": "pPpsbA::Rluc", "values": [
      {"measurement": "binding signal (% of CTP bound (maximum))", "result": 64}
    ]}
  ]
}
